B1: soluble recombinant ICOSL-Fc (Fc fusion, UniProt O75144 19-256, looked up)
chain: DTQEKEVRAMVGSDVELSCACPEGSRFDLNDVYVYWQTSESKTVVTYHIPQNSSLENVDSRYRNRALMSPAGMLRGDFSLRLFNVTPQDEQKFHCLVLSQSLGFQEVLSVEVTLHVAANFSVPVVSAPHSPSQDELTFTCTSINGYPRPNVYWINKTDNSLLDQALQNDTVFLNMRGLYDVVSVLRIARTPSVNIGCCIENVLLQQNLTVGSQTGNDIGERDKITENPVSTGEKNAAT
notes: also called B7-H2; CD275; source: bought: Bio-Techne / R&D

Common to all, as to test: ELISA; OPN preparation (60 nM in PBS) coated on MaxiSorp plates; ICOSL-Fc titrated from 60 nM to 1.8 nM in PBS + 0.05% Tween-20, 1 h at 25 C, with or without 60 nM ICOS-Fc, or ICOS-Fc alone; detected with HRP anti-human-IgG1
Holding throughout (settings): both partners purified
For orientation: An ELISA detects its analyte on a solid surface through an enzyme-linked reagent.

Experiment [1] concerns the target T1, GST-OPN fusion protein (human OPNa) produced in E. coli (human, UniProt P10451-1 17-314).
T1 construct: human Osteopontin OPNa; also called OPN-GST; huGST-OPN; source: E. coli BL21 (DE3), purified (Glutathione Sepharose)

The target in experiment [2] is T2, full-length OPN (OPN-a) produced in an eukaryotic system ( (human or mouse cDNA cloned), UniProt P10451-1 17-314).
T2 construct: Osteopontin, full-length form OPN-a; Secreted into the supernatant, so the signal peptide is probably absent (surmise); also called OPN-FL; home-made OPN-FL; source: CHO cells, stably transfected (pUCOE vector), purified from supernatant on nickel-nitrilotriacetic agarose

Experiment [3] has as its target B1.

3 molecules from paper PMC7588454, “Osteopontin binds ICOSL promoting tumor metastasis” (Communications Biology, 2020) can be followed below.

T2 sequence (P10451 17-314): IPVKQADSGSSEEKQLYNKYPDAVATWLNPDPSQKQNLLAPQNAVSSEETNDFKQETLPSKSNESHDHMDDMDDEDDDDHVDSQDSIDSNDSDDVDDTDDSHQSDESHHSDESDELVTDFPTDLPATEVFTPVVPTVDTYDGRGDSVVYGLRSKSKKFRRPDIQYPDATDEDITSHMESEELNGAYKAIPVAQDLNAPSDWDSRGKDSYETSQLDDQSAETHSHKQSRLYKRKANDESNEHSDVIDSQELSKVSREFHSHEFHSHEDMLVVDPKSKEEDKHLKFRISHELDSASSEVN
T1 sequence (P10451 17-314): as above

For the molecule B1, the binding result in experiment [1] and in experiment [2] was “binds” throughout.

B2: recombinant N-term portion of OPN (aa 17-167) (domain or fragment)
chain: not shown
notes: Osteopontin, N-terminal thrombin-generated fragment, aa 17-167; also called OPN-N; OPN-N terminal; source: recombinant
Take B2: the binding result in experiment [3] was “binds”.

B3: recombinant C-term portion of OPN (aa 168-314) (domain or fragment)
chain: not shown
notes: Osteopontin, C-terminal thrombin-generated fragment, aa 168-314; also called OPN-C; OPN-C terminal; source: recombinant
For B3, the binding result in experiment [3] was “binds”.
